According to patent US20240084044A1, “Heteromultivalent Nucleic Acid Scaffolds and Uses Thereof” (George Mason University, priority 2022, published 2024):
Where “and” joins values, the source holds several entries; their conditions need not be identical. Equal values may be shown once. Bridges are numbered along the chain shown (N, C = ends). Roman numbers before positions name the chains, in order.

Target: T1, ST2/IL-33 binary complex (Homo sapiens, UniProt O95760+Q01638)
T1 construct: included the extracellular domains, K19-F328 and S21-E359, respectively; the cleaved mature proteins, S112-T270, A117-S269, and R2-S310, respectively; purchased Sino Biologicals ST2 10105-HCCH; IL-33 10368-HNAE; host or cells: ST2: HEK293; IL-33: E. coli
T1 sequence (Q01638 19-328 isoform Q01638-2): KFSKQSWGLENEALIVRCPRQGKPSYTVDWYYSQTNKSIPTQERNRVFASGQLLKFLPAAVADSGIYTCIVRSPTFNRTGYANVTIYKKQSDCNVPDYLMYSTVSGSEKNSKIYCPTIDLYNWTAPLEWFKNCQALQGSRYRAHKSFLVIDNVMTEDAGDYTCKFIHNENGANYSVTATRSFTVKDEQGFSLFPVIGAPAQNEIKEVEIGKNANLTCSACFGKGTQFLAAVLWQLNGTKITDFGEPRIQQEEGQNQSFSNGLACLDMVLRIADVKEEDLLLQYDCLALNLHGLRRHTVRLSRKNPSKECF
T1 sequence (O95760 112-270): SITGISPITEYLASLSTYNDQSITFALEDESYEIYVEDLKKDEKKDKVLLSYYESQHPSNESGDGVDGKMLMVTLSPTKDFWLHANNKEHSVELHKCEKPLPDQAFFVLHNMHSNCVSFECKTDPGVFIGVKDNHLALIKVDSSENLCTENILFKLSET
Assay: SPR dissociation constant for the ST2/IL-33 binary complex
Format: binding
From the text: Recombinant ST2 with truncated FLAG (DDDDK) tag (Cat. #10105-HCCH), His-tagged IL1RAcP (Cat. #10121-H08H), IL-33 (Cat. #10368-HNAE), IL-1β (Cat. #10139-HNAE), and FLAG-tagged SIRT5 (Cat. #19202-H22E) were purchased from Sino Biologicals (Wayne, PA). ST2 and IL1RAcP were expressed in HEK293 cells and included the extracellular domains, K19-F328 and S21-E359, respectively. IL-33, IL-1β, and SIRT5 were expressed in E. coli and included the residue sequence of the cleaved mature proteins, S112-T270, A117-S269, and R2-S310, respectively. Lyophilized ST2, and IL1RAcP were reconstituted in ultrapure (18.5 MΩ) water to a concentration of 0.5 mg/mL (5.6 μM) and stored at −80° C. until use. SIRT5 was reconstituted to 0.2 mg/mL (2.87 μM). To prevent oxidation, IL-33 was reconstituted in 10 mM β-mercaptoethanol (Sigma-Aldrich) to a concentration of 0.1 mg/mL and IL-1β was reconstituted to 0.250 mg/mL. All peptides were purchased from Peptide 2.0 (Chantilly, VA) and designed based on IL1RAcP hotspot residues known to interact with IL-33/ST2 and surrounding residues based on the canonical sequence of IL1RAcP (Uniprot #Q9NPH3). All peptides were modified with acetylated N-terms and amidated C-terms to optimize stability and cyclic peptides cyclized via thioether or disulfide bond. Candidate peptides for the final molecule were also modified with an azido-Lysine and additional N-term alanine or cysteine, to provide the azide group for copper free click chemistry and maintain cyclization. Peptides were stored at −20° C. in lyophilized aliquots of 100 μg or 200 μg and −80° C. after reconstitution in sterile DMSO to a concentration of 10 mM.
SPR experiments were carried out on an OpenSPR instrument (Nicoya). Gold nanoparticle sensor chips (Nicoya) were functionalized by incubation in a solution of ethanol and 10 mM 11-Mercaptoundecanoic acid (MUDA) at RT for a minimum of 48 h, then stored in ethanol at 4° C. until use. Chips were activated with a solution of 200 mM EDC and 50 mM NHS for 3 m at RT. […] Data was analyzed with TraceDrawer software to a 1:1 fit model.

Substance: MSTOP: 3WJ DNA scaffold whose three DBCO staple strands carry cyclized azidolysine IL-1RAcP hotspot peptides; decoy for IL-33/ST2 (peptide 1 Ac-CKEYGIQRITC-NH2; peptide 2 Ac-AKVGSPKNAVPPC-NH2; peptide 3 Ac-CKGEVAKAAKVKC-NH2; disulfide I:1-I:11, III:1-III:13; thioether II:1-II:13; not fully specified (some residues); also: three peptides held on a 3-way junction DNA scaffold via DBCO staple strands)
- increase in affinity compared to the individual peptides and IL-1RAcP (SPR KD comparison): ~100 fold and 100 fold
- Kd (SPR, 1:1 fit, read-out: KD (affinity) to the binary ST2/IL-33 complex): 195 nM and < 200 nM
